From US20240252614A1 (Pfizer, published 2024)

How the values were obtained:
PIV1052 = target: T1, PIV1052 (PIV1); assay: BLI, no stress;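 note: binding of thermally stressed PIV1 F mutant supernatant to mAb on AHC biosensors for 5 min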
T1 construct: Q92C-G134C, A466V, S473V; also called PV1052
Procedure: (§1) The OCTET HTX (Sartorius, Gottingen, Germany) instrument was used to evaluate the expression and conformational integrity for each mutant. All measurements were conducted at 30° C. temperature in 96-well black plates (Corning, Corning, NY) with a final volume of 240 μL per well at a constant agitation rate of 1000 RPM.
(§2) Conformation integrity of PIV1 F protein mutants were evaluated by a thermal stress experiment. Crude cell culture supernatants were normalized based on the results of the titer quantitation and then incubated for 1 hour at room temperature and two higher temperatures. For the initial testing of PIV1 mutants, the two temperatures were 50° C. and 53° C. […] Anti-Human IgG Fc Capture (AHC) biosensors were first equilibrated in PB for before being dipped into more PB to establish the initial baseline. […] The mAb-bound biosensors were then dipped into the thermal stresses cell culture supernatants for 5 minutes.

PIV1048 = target: T2, PIV1048 (PIV1); assay: BLI, no stress;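 note: binding of thermally stressed PIV1 F mutant supernatant to mAb on AHC biosensors for 5 min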
T2 construct: Q92C-G134C, A466L, S473L, A480L
Procedure: as §1, §2

PIV1063 = target: T3, PIV1063 (PIV1); assay: BLI, no stress;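 note: binding of thermally stressed PIV1 F mutant supernatant to mAb on AHC biosensors for 5 min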
T3 construct: A466L, S473L, A480L, Q92A, G134L
Procedure: as §1, §2

PIV1051 = target: T4, PIV1051 (PIV1); assay: BLI, no stress;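 note: binding of thermally stressed PIV1 F mutant supernatant to mAb on AHC biosensors for 5 min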
T4 construct: Q92C-G134C, A466V, S473V, A480V
Procedure: as §1, §2

[1] = target: T5, PIV1 F literature prefusion comparison (PIV1); assay: BLI, no stress
T5 construct: F113G, F114S, A466I, S473I (Stewart-Jones et al. 2018)
Procedure: as §1, §2

PIV1058 = target: T6, PIV1058 (PIV1); assay: BLI, no stress
T6 construct: A466L, S473L, Q92A, G134A
Procedure: as §1, §2

PIV1060 = target: T7, PIV1060 (PIV1); assay: BLI, no stress
T7 construct: Q92L, G134A, A466L, S473L, A480L
Procedure: as §1, §2

PIV1066 = target: T8, PIV1066 (PIV1); assay: BLI, no stress
T8 construct: A466I, S473I, A480L, Q92L, G134A
Procedure: as §1, §2

PIV1050 = target: T9, PIV1050 (PIV1); assay: BLI, no stress
T9 construct: F113G, F114S, Q92C-G134C, A466V, S473V, A480V
Procedure: as §1, §2

PIV1047 = target: T10, PIV1047 (PIV1); assay: BLI, no stress
T10 construct: F113G, F114S, Q92C-G134C, A466L, S473L, A480L
Procedure: as §1, §2

PIV1068 = target: T11, PIV1068 (PIV1); assay: BLI, no stress
T11 construct: A466I, S473I, A480I, Q92L, G134A
Procedure: as §1, §2

PIV1067 = target: T12, PIV1067 (PIV1); assay: BLI, no stress
T12 construct: F113G, F114S, Q92C-G134C, A466I, S473I, A480I
Procedure: as §1, §2

PIV1061 = target: T13, PIV1061 (PIV1); assay: BLI, no stress
T13 construct: Q92L, G134A, A466L, S473L
Procedure: as §1, §2

PIV1049 = target: T14, PIV1049 (PIV1); assay: BLI, no stress
T14 construct: Q92C-G134C, A466L, S473L
Procedure: as §1, §2

PIV1054 = target: T15, PIV1054 (PIV1); assay: BLI, no stress
T15 construct: A466L, S473L, A480L, G134A
Procedure: as §1, §2

PIV1062 = target: T16, PIV1062 (PIV1); assay: BLI, no stress
T16 construct: F113G, F114S, A466L, S473L, A480L, Q92A, G134L
Procedure: as §1, §2

PIV1064 = target: T17, PIV1064 (PIV1); assay: BLI, no stress
T17 construct: F113G, F114S, Q92C-G134C, A466I, S473I, A480L
Procedure: as §1, §2

PIV1065 = target: T18, PIV1065 (PIV1); assay: BLI, no stress
T18 construct: F113G, F114S, Q92C-G134C, A466I, S473I
Procedure: as §1, §2

PIV1059 = target: T19, PIV1059 (PIV1); assay: BLI, no stress
T19 construct: F113G, F114S, A466L, S473L, A480L, G134A, Q92L
Procedure: as §1, §2

PIV1056 = target: T20, PIV1056 (PIV1); assay: BLI, no stress
T20 construct: F113G, F114S, A466L, S473L, A480L, Q92A, G134A
Procedure: as §1, §2

PIV1055 = target: T21, PIV1055 (PIV1); assay: BLI, no stress
T21 construct: A466L, S473L, G134A
Procedure: as §1, §2

PIV1053 = target: T22, PIV1053 (PIV1); assay: BLI, no stress
T22 construct: F113G, F114S, A466L, S473L, A480L, G134A
Procedure: as §1, §2

PIV1057 = target: T23, PIV1057 (PIV1); assay: BLI, no stress
T23 construct: A466L, S473L, A480L, Q92A, G134A
Procedure: as §1, §2

hMPV077 = target: T24, hMPV077 (hMPV A, UniProt Q6WB98 19-102); assay: BLI, no stress
T24 construct: Q476C, S477C
Procedure: as §1
(§3) Conformation integrity of hMPV A F protein mutants were evaluated by thermal stress experiments. Crude cell culture supernatants were normalized based on the results of the titer quantitation and then incubated for 1 hour at room temperature and two higher temperatures. […] Anti-Human IgG Fc Capture (AHC) biosensors were first equilibrated in PB before being dipped into more PB to establish the initial baseline. […] The mAb-bound biosensors were then dipped into the thermal stressed cell culture supernatants for 5 minutes. The kinetics analysis was done by OCTET data analysis software (version 12.0, Sartorius) based on curve fitting of the entire associate step.

hMPV045 = target: T25, hMPV045 (hMPV A, UniProt Q6WB98 19-102); assay: BLI, no stress
T25 construct: I137C-A159C
Procedure: as §1, §3

hMPV043 = target: T26, hMPV043 (hMPV A, UniProt Q6WB98 19-102); assay: BLI, no stress
T26 construct: G366C-D454C
Procedure: as §1, §3

hMPV046 = target: T27, hMPV046 (hMPV A, UniProt Q6WB98 19-102); assay: BLI, no stress
T27 construct: A140C-S149C
Procedure: as §1, §3

hMPV047 = target: T28, hMPV047 (hMPV A, UniProt Q6WB98 19-102); assay: BLI, no stress
T28 construct: L141C-A159C
Procedure: as §1, §3

hMPV044 = target: T29, hMPV044 (hMPV A, UniProt Q6WB98 19-102); assay: BLI, no stress
T29 construct: T411C-Q434C
Procedure: as §1, §3

hMPV050 = target: T30, hMPV050 (hMPV A, UniProt Q6WB98 19-102); assay: BLI, no stress
T30 construct: V148C-L158C
Procedure: as §1, §3

hMPV062 = target: T31, hMPV062 (hMPV A, UniProt Q6WB98 19-102); assay: BLI, no stress
T31 construct: G121A
Procedure: as §1, §3

hMPV102 = target: T32, hMPV102 (hMPV B, UniProt Q6WB98 19-102); assay: BLI, 53C stress
T32 construct: L141C-A161C
Procedure: (§4) All measurements were conducted at 30° C. temperature in 96-well black plates (Corning, Corning, NY) with a final volume of 240 μL per well at a constant agitation rate of 1000 RPM.
(§5) Conformation integrity of hMPV B F protein mutants were evaluated by a thermal stress experiment. Crude cell culture supernatants were normalized based on the results of the titer quantitation and then incubated for 1 hour at room temperature and two higher temperatures. For the testing of hMPV B single mutants, the two temperatures were 53° C. and 56° C. After the incubation, the protein mutants were probed with prefusion specific monoclonal antibody hMPV-2 by OCTET HTX. Anti-Human IgG Fc Capture (AHC) biosensors were first equilibrated in PB before being dipped into more PB for to establish the initial baseline. Biosensors were incubated with hMPV-2 before being equilibrated in PB to establish the experimental baseline. The mAb-bound biosensors were then dipped into the thermal stresses cell culture supernatants for 5 minutes.

hMPV108 = target: T33, hMPV108 (hMPV B, UniProt Q6WB98 19-102); assay: BLI, 53C stress
T33 construct: T365I
Procedure: as §4, §5

hMPV107 = target: T34, hMPV107 (hMPV B, UniProt Q6WB98 19-102); assay: BLI, 53C stress
T34 construct: S149T
Procedure: as §4, §5

hMPV101 = target: T35, hMPV101 (hMPV B, UniProt Q6WB98 19-102); assay: BLI, 53C stress
T35 construct: A140C-S149C
Procedure: as §4, §5

B1: PIV1-8 mAb (antibody, V domains shown)
VH: QVQLVQSGAEVKKPGSSVKVSCEASGGTFSNYVISWVRQAPGQGLEWMGGIIPVFATAKYAQKFQGRVTIIADQSTNTAYLELSSLRSDDTAVYFCASVDSGGTWWDAFAIWGQGTMVTVSS
VL: QAVVTQPRSVSGSPGQAVTISCTGTSSDVGGYNYVSWYQHHPGKAPKLIIYDVTKRPSGVPDRFSGSKSGNTASLTISGLQTEYEADYYCCSYAGSYTLVFGGGTKLTVLG
notes: human IgG1; also called hPIV1-8 mAb; hPIV1-8
PIV1052
  Response Shift: 0.67 nm
PIV1048
  Response Shift: 0.737 nm
PIV1063
  Response Shift: -0.116 nm
PIV1051
  Response Shift: 0.725 nm
[1]
  Response Shift: 0.709 nm
PIV1058
  Response Shift: 0.688 nm
PIV1060
  Response Shift: 0.584 nm
PIV1066
  Response Shift: 0.642 nm
PIV1050
  Response Shift: 0.848 nm
PIV1047
  Response Shift: 0.79 nm
PIV1068
  Response Shift: 0.628 nm
PIV1067
  Response Shift: 0.849 nm
PIV1061
  Response Shift: 0.619 nm
PIV1049
  Response Shift: 0.636 nm
PIV1054
  Response Shift: 0.764 nm
PIV1062
  Response Shift: 0.619 nm
PIV1064
  Response Shift: 0.912 nm
PIV1065
  Response Shift: 0.809 nm
PIV1059
  Response Shift: 0.841 nm
PIV1056
  Response Shift: 0.739 nm
PIV1055
  Response Shift: 0.757 nm
PIV1053
  Response Shift: 0.857 nm
PIV1057
  Response Shift: 0.718 nm

B2: hMPV-2 mAb (antibody, V domains shown)
VH: QVQLQQSGAEVKKPGASVKVSCKASGYTFTSYGISWVRQAPGQGLEWMGWISGYNGNTNYAQTFQGTFTMTTDTSTSTAYMELRRLRSGDTAVYYCARDRYYASGSYNGMDVWGQGTTVTVSS
VL: QSALTQPPSASGAPGQRVTVSCSGSSSNVGSSSVYWYQQLPGTAPKLLIYRNNQRPSGVPDRFSGSKSGTSASLAISGLRSEDEADYYCAAWDDSLSGWVFGGGTKLTVLG
notes: human IgG1
hMPV077
  Response Shift: 0.751 nm
hMPV045
  Response Shift: 0.582 nm
hMPV043
  Response Shift: 0.636 nm
hMPV046
  Response Shift: 0.573 nm
hMPV047
  Response Shift: 0.268 nm
hMPV044
  Response Shift: 0.797 nm
hMPV050
  Response Shift: 0.669 nm
hMPV062
  Response Shift: 0.774 nm
hMPV102
  Response Shift: 0.572 nm
hMPV108
  Response Shift: 0.802 nm
hMPV107
  Response Shift: 0.846 nm
hMPV101
  Response Shift: 0.716 nm
